Test results: the Human Domainome abundance scans (Beltran et al. 2025)

B1: E3 ubiquitin-protein ligase Midline-1, residues 172 to 214; numbered along this chain, O15344 (parent)
chain: GLMCLEHEDEKVNMYCVTDDQLICALCKLVGRHRDHQVAALSE

Variants of: B1
Test: abundance fitness (aPCA) (normalised: wild type 0, dead -1); higher = more abundant; growth selection in yeast, the domain comes from the species named
Details: Homo sapiens

Abundance fitness, by site and new letter:
R34: V -0.069 | K 0.376 | D -0.169 | I 0 | L -0.376 | W -0.542 | Y -0.544 | S -0.066 | C 0.033 | H 0.25 | A 0.164 | Q 0.088 | P -0.24 | E 0.063 | G 0.048
Q21: A 0.003 | G -0.133 | F -0.07 | E -0.047 | S 0.042 | V 0.044 | L -0.154 | I -0.133 | P -0.524 | T -0.064 | R 0.031 | Y -0.171 | M 0.052 | C -0.174 | H 0.231 | D -0.099 | W -0.682
H33: F -0.528 | G -0.478 | R -0.732 | Y -0.603 | T -0.538 | D -0.647 | W -1.01 | K -0.423 | Q -0.73 | V -0.882 | N -0.42 | L -0.829 | S -0.718 | A -0.591 | E -0.576
D35: L -0.172 | Y -0.33 | K -0.105 | S -0.189 | F -0.254 | V -0.28 | A -0.285 | M -0.299 | R -0.287 | I -0.496 | P -0.299 | E 0.088 | T -0.042 | N -0.114 | H -0.177 | C -0.142 | Q 0.034
A39: V 0.027 | C 0.003 | E 0.016 | T 0.181 | D 0.088 | P -0.491 | I -0.08 | Q 0.04 | N 0.401 | M -0.089 | S 0.102 | H -0.024 | K 0.059
I23: E -0.233 | K -0.312 | D -0.124 | C -0.081 | L -0.019 | F -0.38 | M 0.011 | T -0.1 | A 0.022 | S -0.369 | V 0.151 | W -0.423 | G -0.19 | R -0.237
D19: Q -0.557 | V -1.02 | N -0.095 | R -0.65 | G -0.72 | H -0.496 | P -0.723 | T -0.984 | L -1.04 | W -0.779 | M -1.1 | K -0.759 | S -0.377
L26: T 0.189 | A 0.083 | K 0.193 | N 0.193 | E 0.101 | P 0.295 | R 0.272 | Q 0.387 | V 0.027 | H 0.353 | D 0.089 | I -0.525 | S 0.165 | C 0.138 | M 0.031 | Y -0.041
H36: P -0.637 | V -0.588 | I -0.488 | W -1.01 | E -0.546 | M -1.04 | Q -0.284 | K 0.034 | L -0.753 | G -0.516 | T -0.689 | S -0.533 | N -0.376 | A -0.445 | C -0.056 | R -0.669 | D -0.798 | Y -0.381
D20: T -0.232 | C -0.308 | I -0.543 | L -0.404 | Y -0.464 | S -0.038 | H -0.106 | M -0.067 | V -0.33 | P -0.573 | W -0.753 | G -0.075 | A -0.15 | N 0.033 | R -0.083 | Q 0.099
Q37: H -0.148 | F -0.347 | V -0.208 | M -0.269 | T -0.026 | L -0.338 | P -0.015 | Y -0.169 | I -0.508 | R -0.077 | N -0.184 | S 0.047 | A -0.006 | G -0.146 | D 0.105 | E 0.023 | W -0.6
C27: Q -0.913 | H -0.481 | S -0.807 | P -0.166 | E -0.741 | L -0.883 | D -0.328 | T -0.571 | N -0.478 | W -1.01 | G -0.696 | A -0.757 | K -0.429 | I -0.538 | Y -0.448 | M -1.02 | V -1
L29: H 0.19 | Y -0.085 | D 0.241 | R 0.227 | Q -0.016 | F -0.262 | A 0.135 | S 0.279 | T 0.175 | C 0.025 | M 0.086 | I -0.205 | E 0.211 | N 0.072 | K 0.182 | V 0.008 | G 0.213
A25: E -0.018 | D -0.073 | Q 0.087 | V -0.303 | H 0.188 | T -0.16 | L -0.28 | R 0.099 | W -0.181 | G 0.105 | M -0.23 | I -0.266 | F -0.233 | C -0.097 | K -0.02 | P -0.124
R32: P -0.022 | Q 0.007 | A 0.033 | T 0.09 | V -0.172 | S 0.073 | W -0.323 | M -0.219 | E 0.149 | L -0.058 | G 0.061 | F -0.593 | I -0.18 | D -0.072 | N 0.287 | K 0.116 | H -0.152 | C -0.021
G31: F -0.519 | H 0.057 | C -0.121 | M -0.514 | I -0.887 | A -0.231 | L -0.47 | R -0.299 | Q -0.438 | Y -0.19 | E -0.154 | T -0.333 | S -0.263 | D 0.111 | K -0.065 | W -0.803
V30: P 0.022 | S 0.114 | Y -0.049 | M -0.039 | F -0.381 | A 0.15 | H 0.21 | K 0.235 | N 0.147 | W -0.309 | G 0.134 | D 0.145 | C -0.115 | L -0.028 | I -0.131 | R -0.055 | E 0.138
L22: T 0.204 | S 0.316 | H 0.482 | E 0.377 | W 0.024 | G 0.364 | V -0.025 | P 0.428 | R 0.311 | N 0.698 | Q 0.29 | M 0.004 | K 0.33
C24: S -1.01 | R -1.02 | P -0.977 | Q -0.792 | Y -0.364 | G -0.814 | M -1.02 | E -1.05 | L -0.868 | N -0.656 | K -0.885 | V -0.971 | W -0.978 | T -0.706 | A -0.799
V38: W -0.018 | S -0.008 | K -0.209 | C 0.076 | R -0.217 | N -0.243 | F 0.124 | M -0.18 | D -0.131 | H 0.082 | I -0.217 | Q -0.125 | G -0.134 | T -0.233 | L -0.035
K28: V -0.396 | M -0.114 | L -0.16 | S 0.013 | A 0.083 | F -0.316 | Q 0.288 | R 0.119 | D -0.038 | W -0.149 | H 0.083 | I 0.061 | N -0.042 | E 0.007 | Y -0.161 | C -0.148 | T 0.063 | P 0 | G 0.013
